Assay: soluble on expression in E. coli; label from the status in PepcDB or PDB records

Sequence | soluble on expression in E. coli
MFVDRQRIDLLNRLIDARVDLAAYVQLRKAKGYMSVSESNHLRDNFFKLNRELHDKSLRLNLHLDQEEWSALHHAEEALATAAVCLMSGHHDCPTVITVNADKLENCLMSLTLSIQSLQKHAMLEKA | soluble
MAHHHHHHMSRCNVAACFFPQQYGCETECGSESLLRAVLGDNANRVDSVMNHCTPHCVAAAIARCIREGPNFPHHLHVIAGVGRFKEIMIACLIDMIPQPLFSIDVPLQCMMFASEEGSVVCKLFDSESMPSLLSTANDMEQIFLVSLRHERRMVTIVAVEQLSTSLVASMLGSVCSNIWVLLSGLHTTEREMSLLNEAMAIRDAVREFSSAVGAVSTELHVEEESSAHATPPVAVEVVHPSAPSLKGVEDNDTAVVVSSAEAETVSDTQSVARRLEESQCEVNQLRKKLEEAEDTIHRFRAAERRAEEEKKNLSLAESLAATTPVATSERAESLFCEGTGGLDSQNSKGNENWVGERTVVATQRELSAMQAKLSELQRCLVETSEGNLGRVREFQCRELEWQRELRRRTEERDVALQECERLRGATPCHGSQEKVFSRAVETPHAHQEQELDNLLSRIRSITAAHGNAAHSEFPMLFSSQRSAGGAGQPLSPRGDYRRFASLERYRS | not soluble
MGSDKIHHHHHHMIIIELNKRQEHIIQIVKDHGPITGESIAAQLGLTRATLRPDLAILTMAGYLEARPRVGYFYTGKTGGQLLSEAVKKIKVQDYQSRPVVIDKNVSVYDAICTMFLEDVGTLFVVDQSTLLVGVVSRKDLLRASLGKQDLTSLPVNIIMTRMPNIAMCRREDSLYDIAMELIERQIDAMPVVKDTKQGLEVVGRITKTNITRAFVNLVNNE | not soluble
MDIMLVLWNGTPPMTRPEIEKVINTKKKLASTTILSLLTRLESKNFVEVTKQGKLNLYTPLVSQSDYQAHESQSVLEKLYGNSLKKFVTSLYQGKKISSEEIHELSDFLKELEDGEE | not soluble
GPGSMSSADLFKKFTLQNVAQIANSSHKEQMQVRHDLAEQYPQLADFWEDIMPRKSDIMLVRCHDQVHCVTLVSAQPEVLFFNHHNGPYIPHLKLLHKYPFILQRHQVDVGACKHVLSGANIMCPGLTSKGGYITPEIPAGQLVAVYVETKEHAVAIGKTLMSSEEIKKVNSGPCIENIHHVGDGLWMNRVLSASHIGAR | soluble
PKKPPMNGYQKFSQELLSNGELNHLPLKERMVEIGSRWQRISQSQKEHYKKLAEEQQRQYKVHLDLWVKSLSPQDRAAYKEYISNKRK | soluble
APPSSFSKAKKEAVKIYLDYPTSFYCGCDITWKNKKKGIPELESCGYQVRKQEKRASRIEWEHVVPAWQFGHQRQCWQKGGRKNCTRNDKQFKSMEADLHNLVPAIGEVNGDRSNFRFSQWNGSKGAFYGQCAFKVDFKGRVAEPPAQSRGAIARTYLYMNNEYKFNLSKAQRQLMEAWNKQYPVSTWECTRDERIAKIQGNHNQFVYKAC | soluble
MSLTQHTRNFSFKVLTINTHKGFTAFNKRFILPELRDAVRTVGADIVCLQEVMGAHEVHPLHIENWPDTTHYEFLADTMWSDFAYGRNAVYPEGHHGNAVLSRYPIEHYENRDVSVGGSEKRGVLYCRITPPMLNRPIHVMCVHLGLRESHRQAQLTMLAGWVNALPESEPVLVAGDFNDWRQKAGPPLNAAGLEEIFTRAHGRPARTFPVSMPLLRLDRIYVKNANASSPTALPLRNWRHLSDHAPLSAEIHLEGHHHHHH | soluble
MEPPLILIVEDEKDIARFIELELQAEGYRTEVAHDGITGLSKFREVSPNLVILDLMLPVMDGIEVAKRIRKTSNVPILILTAKDRVEDKVAGLDAGADDYLVKPFSIEELLARVRAHLRRVTPAITGEIRVADLIINLEGREVFRGNRRIELSNKEFELLELLAKNPGKVFSRYEIEEKVWPGYQGGSNVVDVYIGYLRKKLEAGGERRLIHTVRGVGYVLRED | soluble
MARTEKKKDVVIVGLGWTGAIAGMELAAEGLEIVALERGRDQNTVPEFKYPNQIDELTYGVRLVNMQHPSQQTVTVRRNDAETALPYRSMGSFLPANGVGGAGTHWNGLLWRPQPQEIQLRSYVKERWGESIIPEGMNLMDYPVTYDELEPFFTRFDEVAGISGKAGNLKGKIQPGGNPFEGWRSSEYPMPPMPPTYDATKFRDAAQAMGYHPFPAPAGVASTAYVNPYGMQMAPCNFCGFCERFGCYQYSKSSPQTAILDALKRKPNFSYRTHAEVLRIESSADGKTATGVTYFDAAAQEEVFQPADLVILAAYQLNNVHLLLLSGIGEPYDPATNTGVTGKNYAYQMNGGVTMFFKDANFNPFIGHGSNGFCIDDFSVNQNDFGALGFIGGAYWRSGTFNGQPIRSMILPAGTPGWGAGWKKAIGQWYGHSMSIGTHGSHMAYRANHLDLDPTYKDPHGRPLMRMTFNWQDNDLRMNQYMKLKAGEVGKAMKPDLMQLGFKGPGAMYDVRPYQTTHNTGGHIMSRDPREGVVNRYCQAWDKHNVFVMGAGNFVQNTQYNPTGMVGALAYWTIHAIRTQYLRDPRPLVLEHHHHHH | not soluble
MKYTITVMSGKGGVGKSTVAVNLAVSLARKGLKVGLIDADINGPDDPKLLGVSDLKLYADEEGIIPAETRYGVRVVSMGFLIPTEDTPIIWRGSLMHKAIQQFLEDVNWKDTDVVVLDMPPGTGDVALSVAQLIPESNGVVIVVTPQDVALLDAKKAINFAKQLKLPVLGIIENMSGFVCPHCGNVTYIFKNGGGEKSAKEYNLPFLGKIPLIPEIAENGDNGIPAVVINDKIREIFDSITDQILKEAQIENIKQLEHHHHHH | not soluble
MAHHHHHHMPRRFVAEYVTKHLCGVRVLESFAETSTATGVIGTHNGSFHCDEAMACGLLRCSQNFGQSNILRSRDPNALERCNIVVDVGSVYDEATLRFDHHQPSFHDTMKTPKAAYQTRLSSAGLVYKHFGREIIQGYVESALASPYRVKLLDATKWGTDKKKLSEQELDILFDIVYKNFVEHIDGIDNGVNAYGPAETEGEEGAVPVSSSSPSCVKKYNVSTTLSARIGNLMPWWNEEGNGKVENENAAFLQAMELATSEFFDSVHYHVFAWMPARGIVRAAFLEAMNVHPSGRIVVFKDCFCPWKEHLLELEEEHGKVGHVLYVLFADKKGWRVQAVPKEASGFENRKSLPWRGLRDEELSQASGIEGGIFVHVSGFIGGNKTYEGALQMAVKALTVVN | not soluble
MEGLFNAIKDTVTAAINNDGAKLGTSIVSIVENGVGLLGKLFGF | soluble
MGSDKIHHHHHHMNAQIKIINTANGYMALCQDTPEDITPAWFSVDFWREKSAVVGSSKGRYTTWFVAFEHSHWVLRHYWRGGMMEKFSKDAYFYTGLENTRAMGELRLLDALYREQFAVPKPIAANIVRDGLFYRADIIIERVDGAEDLVAKLTKGTMTQAQWHALGATIAQFHRRGVYHADLNAKNILWQPQQTDSAQERFYLIDFDRGELKTPNAKWQKANLDRLLRSFNKEQGKQPTLAFTPANWAALLEGYHAVVPKV | not soluble
MGSDKIHHHHHHMSSLPLQKSLYPLLRPLGAAYRVLMRARRRRYENGAACGTDVPCVSVGNIGWGGSGKTPVVQWLLQWAAVHGLHAVVLTRGYKASPPGLPYVVTPQSSAAHAGDEPLMLARSCPQATVVVDPVRSRSARWAQERLAPDFFVLDDGFQHVQVARDTDLVLLKKDDLHAEWGRVLPAGSWREGPEALSRAAAFCIKCGSGEFSGLVPDFENRLGSFGVPVFGFSLRPGALIPVCGAHEGAQLPAGAPYVLFSGVGDPAQVAVTVSSFLGYDPVRHHVFADHHGYTQADMDRMAGYGLPLVCTPKDAVKLTAPCGVPVWTLSLETNFHSVWNAQPPAGQAGEGFAQWWQCRWQRLAGLR | not soluble
MHRRAVVLFTAALLLGLGLPRASAESRQDEPTSLITSPGYTRTTASPGPGLTLFTYQNPDDDRVVHVLRADPDAAPLTVESTAGTSGARAEKTTDMLKSTTGYAPRWPHAGLNGGFWYRQGDTLAFMGISVQEGVVQSASCSAAGRGEAALIQHGRPYIGDFTTHLAVTAPGAAPMPLDGVNRHPGWMTGCAQGSGATADRSIGGGVFADASEIIAFTSRFKAPTPVPDADARFTEDDDPGAEAVVAADGTVLSLNPNGRGGVTVPTGGRVLQGTGTGADWLRAHATPGTDLAFEERLHDERFGDDIPLDSSVDVVNGHYPLVHNAQYAYTGQNTAVDPRSAIAVDGPGRTLFVTATGKSGRNGVTLDEFARILLDLGAVDGLNMDGGGSTTLVVEQAVVNRPSDSTGERPVADSLYIGHGGYGHYADLEHHHHHH | not soluble
MRLIIVSGRSGSGKSTALNVLEDNGFYCIDNLPASLLPDLAQRALLHTELLQPQVAVSIDARNLPSQLQRFPELLQEVRDNHINCDVLYLDADDETLLKRFSETRRRHPLTTDTRSLAEAIGDESQLLGPIADLADLKLDTTSLNLYQLRDTIKLRLLNKPEPGTAFLVESFGFKRGMPVDADLVFDVRCLPNPYWKPELRDHSGLEPEVREYLAAQPDVEEMYQDIVGYLNKWLPRFAASNRSYVTVAIGCTGGHHRSVYLAERIGAALRDSLKNVQIRHRDLSS | not soluble
MKEVIFTENAPKPIGPYSQAIKAGNFLFIAGQIPIDPKTGEIVKGDIKDQTRQVLENIKAILEAAGYSLNDVIKVTVYLKDMNDFAKMNEVYAEYFGESKPARVAVEVSRLPKDVLIEIEAIAYKE | soluble
MAHHHHHHMSTYDKSDQIGYDETDHTLNAELEEMMARTPPEVQRHLQHRIHDGILQRMKEETTRKCITFIQKYEQCVNSQKPYNMKLCYPHRDAMNGCAQEVNREENYQRYRIMYLRGELLKYHEKRTAGKMEAFKVRAPDAIRAWKHDYAPKYMHIMEDLGVAPLGTAAGTAEESTNSK | not soluble
MQEVHKWHNDLTGKKLVENLKKNLFDAYYFEDGSEVSKYIMNYVGTGTKIGFGGSVTVQSLNIAEQAMEKGAVILDHNDASLTQEEKMDIMRQQLTSDIFISSTNAITASGELVNIDGVGNRVSAIVFGPKKVIIVVGLNKLCKDVETAFERIKMQAAPKNMKRLGFLNPCIKTGYCVNCDAETRACRIYSVIKRRPMLTDMTVLVVGKSLGFLEHHHHHH | soluble
MSLLSIIPISAGIPLTETEPKQKWLEEWSKQLFVKVSIDSEYGWGEVLPAAFNSPALYADIVKRLEPSLNGMEISEPGIIWEKLRKLTFSGGYGPVIGAISGVDIALWDLKAKLSKLYLGDIFGKNEQKIARYASLSRYANYEAVIRASKNIVESGFKAIKLHQTKDDTLESVKRFREEIGYGVDLMVDLNCAMNIDEAIKFANSVQRYELKWVEEPIWPPDDLASLKKINDIVPVAAGENFFDFFKFEDAVHLEALTYYQPDVTKVGGLTPTLKILDLLKKNHEQVAFHNRPHNGWIGIFASIAAARMNGVDALIETPPNGVPSQYFRYNAMITSEVIAPNGVGLSIEPIEPLPQPKDEKILIFHDEGHHHHHH | not soluble
MTGDKEIITMTFKIWQIGLHLQQQEAAAVAIVRGAKECFLQRWWRLPLAHDIIKDGRIVDAQQLAKTLLPWSRELPQRHHIMLAFPASRTLQRSFPRPSMSLGEREQTAWLSGTMARELDMDPDSLRFDYSEDSLSPAYNVTAAQSKELATLLTLAERLRVHVSAITPDASALQRFLPFLPSHQQCLAWRDNEQWLWATRYSWGRKLAVGMTSAKELAAALSVDPDSVAICGEGGFDPWEAVSVRQPPLPPPGGDFAIALGLALGKAY | not soluble

— the DeepSol protein solubility set
